{
  "source": "the supplement of paper PMC9112550",
  "about": "“Optimization of the antimicrobial peptide Bac7 by deep mutational scanning” (BMC Biology, 2022);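 also: peptides expressed intracellularly from a pBAD plasmid library in pooled LB shake-flask culture, induced with 0.3% L-arabinose, DNA abundance read by NGS, three biological replicates, DESeq2 with apeglm shrinkage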",
  "system": "Escherichia coli TOP10",
  "test": "shrunken log2 fold change of peptide-encoding DNA abundance (4.5 h post-induction vs induction); higher = less antimicrobial activity (less host growth inhibition)",
  "details": "time post-induction: 4.5 h; library: site-saturation at positions 5, 18, 19, 20",
  "data": [
    {"sequence": "RRIRPRPPRLPRPRPRPAFGPRP", "values": [
      {"measurement": "shrunken log2 fold change", "value": 0.45}
    ]},
    {"sequence": "RRIRSRPPRLPRPRPRPNKWPRP", "values": [
      {"measurement": "shrunken log2 fold change", "value": -0.0551}
    ]},
    {"sequence": "RRIRMRPPRLPRPRPRPDDDPRP", "values": [
      {"measurement": "shrunken log2 fold change", "value": -0.00152}
    ]},
    {"sequence": "RRIRKRPPRLPRPRPRPIPVPRP", "values": [
      {"measurement": "shrunken log2 fold change", "value": -0.193}
    ]},
    {"sequence": "RRIRVRPPRLPRPRPRPAQWPRP", "values": [
      {"measurement": "shrunken log2 fold change", "value": 0.188}
    ]},
    {"sequence": "RRIRGRPPRLPRPRPRPDLMPRP", "values": [
      {"measurement": "shrunken log2 fold change", "value": 0.878}
    ]},
    {"sequence": "RRIRHRPPRLPRPRPRPGQFPRP", "values": [
      {"measurement": "shrunken log2 fold change", "value": -0.0207}
    ]},
    {"sequence": "RRIRERPPRLPRPRPRPPAAPRP", "values": [
      {"measurement": "shrunken log2 fold change", "value": 0.252}
    ]},
    {"sequence": "RRIRWRPPRLPRPRPRPETYPRP", "values": [
      {"measurement": "shrunken log2 fold change", "value": -0.231}
    ]},
    {"sequence": "RRIRTRPPRLPRPRPRPLFSPRP", "values": [
      {"measurement": "shrunken log2 fold change", "value": -0.717}
    ]},
    {"sequence": "RRIRNRPPRLPRPRPRPCRCPRP", "values": [
      {"measurement": "shrunken log2 fold change", "value": -0.307}
    ]},
    {"sequence": "RRIRNRPPRLPRPRPRPHNWPRP", "values": [
      {"measurement": "shrunken log2 fold change", "value": -0.391}
    ]},
    {"sequence": "RRIRKRPPRLPRPRPRPDIEPRP", "values": [
      {"measurement": "shrunken log2 fold change", "value": 2.53}
    ]},
    {"sequence": "RRIRYRPPRLPRPRPRPTRIPRP", "values": [
      {"measurement": "shrunken log2 fold change", "value": -0.0491}
    ]},
    {"sequence": "RRIRPRPPRLPRPRPRPPMMPRP", "values": [
      {"measurement": "shrunken log2 fold change", "value": 0.0805}
    ]},
    {"sequence": "RRIRKRPPRLPRPRPRPNNAPRP", "values": [
      {"measurement": "shrunken log2 fold change", "value": 0.243}
    ]},
    {"sequence": "RRIRIRPPRLPRPRPRPFINPRP", "values": [
      {"measurement": "shrunken log2 fold change", "value": -0.365}
    ]},
    {"sequence": "RRIRTRPPRLPRPRPRPCQKPRP", "values": [
      {"measurement": "shrunken log2 fold change", "value": 0.0124}
    ]},
    {"sequence": "RRIRTRPPRLPRPRPRPLWCPRP", "values": [
      {"measurement": "shrunken log2 fold change", "value": -0.0967}
    ]},
    {"sequence": "RRIRQRPPRLPRPRPRPDVNPRP", "values": [
      {"measurement": "shrunken log2 fold change", "value": -0.142}
    ]},
    {"sequence": "RRIRSRPPRLPRPRPRPEYGPRP", "values": [
      {"measurement": "shrunken log2 fold change", "value": -0.346}
    ]},
    {"sequence": "RRIRRRPPRLPRPRPRPLLVPRP", "values": [
      {"measurement": "shrunken log2 fold change", "value": 0.329}
    ]},
    {"sequence": "RRIRIRPPRLPRPRPRPPEEPRP", "values": [
      {"measurement": "shrunken log2 fold change", "value": 0.0652}
    ]},
    {"sequence": "RRIRERPPRLPRPRPRPFCYPRP", "values": [
      {"measurement": "shrunken log2 fold change", "value": -0.927}
    ]},
    {"sequence": "RRIRYRPPRLPRPRPRPATVPRP", "values": [
      {"measurement": "shrunken log2 fold change", "value": -0.042}
    ]},
    {"sequence": "RRIRSRPPRLPRPRPRPQIIPRP", "values": [
      {"measurement": "shrunken log2 fold change", "value": -0.226}
    ]},
    {"sequence": "RRIRDRPPRLPRPRPRPRFMPRP", "values": [
      {"measurement": "shrunken log2 fold change", "value": -0.0192}
    ]},
    {"sequence": "RRIRKRPPRLPRPRPRPWSLPRP", "values": [
      {"measurement": "shrunken log2 fold change", "value": 0.0414}
    ]},
    {"sequence": "RRIRPRPPRLPRPRPRPSNTPRP", "values": [
      {"measurement": "shrunken log2 fold change", "value": -0.316}
    ]},
    {"sequence": "RRIRPRPPRLPRPRPRPDKLPRP", "values": [
      {"measurement": "shrunken log2 fold change", "value": 0.038}
    ]},
    {"sequence": "RRIRERPPRLPRPRPRPDTYPRP", "values": [
      {"measurement": "shrunken log2 fold change", "value": 0.0491}
    ]},
    {"sequence": "RRIRQRPPRLPRPRPRPGTIPRP", "values": [
      {"measurement": "shrunken log2 fold change", "value": -0.259}
    ]},
    {"sequence": "RRIRNRPPRLPRPRPRPCIPPRP", "values": [
      {"measurement": "shrunken log2 fold change", "value": -0.0387}
    ]},
    {"sequence": "RRIRRRPPRLPRPRPRPRCCPRP", "values": [
      {"measurement": "shrunken log2 fold change", "value": 0.43}
    ]},
    {"sequence": "RRIRCRPPRLPRPRPRPHITPRP", "values": [
      {"measurement": "shrunken log2 fold change", "value": -0.704}
    ]},
    {"sequence": "RRIRKRPPRLPRPRPRPWFTPRP", "values": [
      {"measurement": "shrunken log2 fold change", "value": -0.00863}
    ]},
    {"sequence": "RRIRTRPPRLPRPRPRPYGDPRP", "values": [
      {"measurement": "shrunken log2 fold change", "value": 0.00839}
    ]},
    {"sequence": "RRIRNRPPRLPRPRPRPCLKPRP", "values": [
      {"measurement": "shrunken log2 fold change", "value": -0.315}
    ]},
    {"sequence": "RRIRKRPPRLPRPRPRPDLIPRP", "values": [
      {"measurement": "shrunken log2 fold change", "value": -0.275}
    ]},
    {"sequence": "RRIRIRPPRLPRPRPRPPLDPRP", "values": [
      {"measurement": "shrunken log2 fold change", "value": 0.0528}
    ]},
    {"sequence": "RRIRYRPPRLPRPRPRPEKNPRP", "values": [
      {"measurement": "shrunken log2 fold change", "value": -0.526}
    ]},
    {"sequence": "RRIRKRPPRLPRPRPRPWCPPRP", "values": [
      {"measurement": "shrunken log2 fold change", "value": 0.0532}
    ]},
    {"sequence": "RRIRVRPPRLPRPRPRPYYMPRP", "values": [
      {"measurement": "shrunken log2 fold change", "value": -0.997}
    ]},
    {"sequence": "RRIRGRPPRLPRPRPRPFIFPRP", "values": [
      {"measurement": "shrunken log2 fold change", "value": 0.516}
    ]},
    {"sequence": "RRIRQRPPRLPRPRPRPNQWPRP", "values": [
      {"measurement": "shrunken log2 fold change", "value": 0.0886}
    ]},
    {"sequence": "RRIRWRPPRLPRPRPRPDPCPRP", "values": [
      {"measurement": "shrunken log2 fold change", "value": -0.026}
    ]},
    {"sequence": "RRIRVRPPRLPRPRPRPIAHPRP", "values": [
      {"measurement": "shrunken log2 fold change", "value": -0.126}
    ]},
    {"sequence": "RRIRVRPPRLPRPRPRPGWTPRP", "values": [
      {"measurement": "shrunken log2 fold change", "value": 0.202}
    ]},
    {"sequence": "RRIRDRPPRLPRPRPRPNYQPRP", "values": [
      {"measurement": "shrunken log2 fold change", "value": -0.187}
    ]},
    {"sequence": "RRIRFRPPRLPRPRPRPRDAPRP", "values": [
      {"measurement": "shrunken log2 fold change", "value": 0.541}
    ]},
    {"sequence": "RRIRRRPPRLPRPRPRPKLMPRP", "values": [
      {"measurement": "shrunken log2 fold change", "value": 0.178}
    ]},
    {"sequence": "RRIRGRPPRLPRPRPRPPYKPRP", "values": [
      {"measurement": "shrunken log2 fold change", "value": 0.18}
    ]},
    {"sequence": "RRIRERPPRLPRPRPRPNSHPRP", "values": [
      {"measurement": "shrunken log2 fold change", "value": -0.8}
    ]},
    {"sequence": "RRIRARPPRLPRPRPRPVHCPRP", "values": [
      {"measurement": "shrunken log2 fold change", "value": 0.0301}
    ]},
    {"sequence": "RRIRRRPPRLPRPRPRPICIPRP", "values": [
      {"measurement": "shrunken log2 fold change", "value": 0.232}
    ]},
    {"sequence": "RRIRSRPPRLPRPRPRPFHYPRP", "values": [
      {"measurement": "shrunken log2 fold change", "value": -0.429}
    ]},
    {"sequence": "RRIRCRPPRLPRPRPRPRTWPRP", "values": [
      {"measurement": "shrunken log2 fold change", "value": 0.326}
    ]},
    {"sequence": "RRIRWRPPRLPRPRPRPWNRPRP", "values": [
      {"measurement": "shrunken log2 fold change", "value": 0.066}
    ]},
    {"sequence": "RRIRKRPPRLPRPRPRPIYNPRP", "values": [
      {"measurement": "shrunken log2 fold change", "value": -0.0567}
    ]},
    {"sequence": "RRIRERPPRLPRPRPRPLAYPRP", "values": [
      {"measurement": "shrunken log2 fold change", "value": -0.203}
    ]}
  ]
}
